Patent US6350609B1, “Electrospraying for mass fabrication of chips and libraries” (New York University, priority 1997, dated 2002)
Where “and” joins values, the source holds several entries; their conditions need not be identical. Equal entries are not always repeated.

Assays:
[1] = biological target: Cytochrome C (equine) (Equus caballus, UniProt P00004); experiment: Mechano-chemical effect of a specific ligand on cross-linked protein film (isometric tension); format: biochemical; settings: electrospray deposited, reduction with dithionite
Cytochrome C (equine), sequence (P00004 whole entry): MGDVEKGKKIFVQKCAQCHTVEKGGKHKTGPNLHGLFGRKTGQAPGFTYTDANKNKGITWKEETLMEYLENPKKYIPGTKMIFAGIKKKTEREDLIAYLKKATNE

[2] = biological target: T1, alkaline phosphatase (Bos taurus, UniProt P19111); experiment: Enzyme activity of electrospray-deposited alkaline phosphatase on nitrocellulose filter (BCIP/NBT substrate); format: biochemical; settings: deposited through polypropylene mask onto wetted nitrocellulose filter; BCIP/NBT staining
T1 construct: purchased Sigma Chemical Company, St. Louis, Mo
Excerpt: The electrospray conditions used in this example were similar to those used in Example 1.
Likewise, the membrane filters on which alkaline phosphatase was deposited was soaked in a standard alkaline phosphatase substrate (5-bromo-4-chloro-3-indolyl phosphate/nitro blue tetrazolium substrate system kit, Sigma, St. Louis, Mo.), resulting in the formation of an insoluble blue colored product of the alkaline phosphatase reaction, and the pattern was visualized as shown in FIG. 12B.

[3] = biological target: Bovine intestinal AP (Bos taurus, UniProt P19111); settings: McComb et al., 1979; cited from earlier work
[4] = Engström, 1961; cited from earlier work
[5] = biological target: T2, Alkaline phosphatase (AP) from bovine intestinal mucosa (Bos taurus, UniProt P19111); experiment: Recovery of specific AP activity (pNPP) after electrospray deposition or drying; format: biochemical; settings: for Activity % (ratio of specific activity of the electrospray-deposited AP to that in the initial solution): +(3-4) kV, 1-50 nA, 0.1 μL/min, tip distance 10 mm, humidity 65 ± 5%
T2 construct: purchased Sigma Chemical Co., St. Louis, Mo; host or cells: bovine intestinal mucosa
Excerpt: Materials. Alkaline phosphatase (AP) from bovine intestinal mucosa, p-nitrophenyl phosphate (pNPP substrate table set, Sigma Fast), trehalose and sucrose were obtained from Sigma Chemical Co., St. Louis, Mo. All other salts and buffer reagents were of analytical grade.
Design of Capillaries for Electrospray. Three different designs of the electrospray capillaries have been tested throughout this study. A first design, shown in FIG. 20A, is similar to the “nanoelectrospray ion source” (Wilm et al., 1994 and 1996) with a silver layer plated on the external surface of the capillary instead of gold. Glass capillaries with sealed ends were first treated for 20 seconds with an electrodeless plasma discharge at reduced pressure (0.01 Torr, discharge power of 10-20 W, in a Pyrex class chamber, 0.25 L). After such plasma cleaning, the glass capillaries were activated in an acidified solution of SnCl2 and 50 g of HCl per 1 L), washed with water and covered with a silver “mirror” (Yampolskii et al., 1981). This design is referred to as a capillary with an external electrode.
A second design, shown in FIG. 20B, is a modification of an electrospray capillary described by the laboratory of the present inventors (Morozov et al., 1993). In this capillary metal electrode (tungsten or stainless steel wire) is not exposed to a gas phase, thus reducing the risk of cornea discharge at high voltages. This second design is referred to as a capillary with an inner electrode.
In a third design, of the capillary (referred to as a bridge capillary), contact of protein solutions with a metal electrode was completely avoided by introducing a liquid bridge between them. […] Since the cross-section of the external capillary 5 is more than ten times larger than that of the inner capillary 7, the conductivity of the external capillary exceeds […] the conductivity of the inner capillary, making most of the current go through the large external capillary 5, whereas the internal plastic capillary 7 is used to supply protein solution.
A microprocessor controlled syringe pump (Cole-Parmer, Niles, Ill.) in combination with a 10 μL Hamilton microsyringe was used to feed the electrospray capillaries. The flow rate was 6-9 μL/h, and the outer diameter of the capillary tips varied in different experiments between 50 and 100 μm.
Chamber with Controlled Humidity. To control humidity during electrospray experiments with enzymes and to protect protein samples from contamination with dust particles present in the ambient air, the electrospray deposition was performed in a small (0.5 L) nearly cubic acrylic box, schematically presented in FIG. 21. A glass window was glued to one side of the box to enable sharp observation of the electrospray torch and substrate under a stereo microscope. The humidity and temperature inside the chamber were measured with solid state digital sensors (Fisher) with 2-4% precision for humidity and 0.2° C. for temperature. To increase the rate of sensor response and to keep the same humidity in all parts of the chamber, the air was stirred with a small fan. Dry air from a tank or air bubbled through water was introduced into the chamber until the required humidity was reached. The fan was then stopped, and electrospray initiated. Occasionally, portions of dry or wet gas were added during the spray experiment if the humidity deviated by more than 3-5% from the required level.
Mass Measurements of the Electrospray-Deposited Proteins. A home-built Quartz Crystal Microbalance (QCM; Sauerbrey, 1959) was used to measure the mass of the electrospray-deposited protein. The microbalance was made of commercial AT-cut quartz crystals (12-17 MHz, with silver electrodes of 5 mm in diameter) after removal of their protective shells. QCM calibration was performed using 0.1% solution of sugar in water. […]

Molecule | Effect in Electrospray Deposit Sample % (relative change in isometric tension) [1] | enzymatic activity after electrospray deposition [2] | pH of exposure causing irreversible inactivation [3] | pI [4] | Activity % (ratio of specific activity of the electrospray-deposited AP to that in the initial solution) ([5]; Bridge Type capillary) [%] | AP activity after electrospray deposition at high voltage and current ([5]; V>7-8 kV, I>500-1500 nA) | AP activity preserved upon drying ([5]; addition of 50% (w/w) of disaccharide (sucrose or trehalose)) [%] | difference in specific AP activity of deposits made at low current before and after electrospray at 1500 nA from the same capillary ([5]; capillaries with internal and external electrodes) | Activity % (ratio of specific activity of the electrospray-deposited AP to that in the initial solution) ([5]; capillary with External Electrode) [%] | Activity % (ratio of specific activity of the electrospray-deposited AP to that in the initial solution) ([5]; capillary with Internal Electrode) [%] | AP inactivation upon electrospray deposition ([5]; capillary with internal electrode, humidity A=65%, currents not exceeding 50 nA) | decrease of AP activity upon electrospray deposition under low humidity ([5]; rapid drying of droplets in gas phase, low humidity, +4 kV, internal electrode, 10-50 nA, 6 μL/h) [%] | AP inactivation upon electrospray deposition ([5]; the two other capillary designs (external electrode, bridge), similar currents and humidity) [%]
O=S(O)S(=O)O [dithionite] | −41% and −49% | – | – | – | – | – | – | – | – | – | – | – | –
AP: Alkaline phosphatase (AP) from bovine intestinal mucosa, Sigma (protein, UniProt P19111 20-506, looked up) Intestinal-type alkaline …: LVPVEEEDPAFWNRQAAQALDVAKKLQPIQTAAKNVILFLGDGMGVPTVTATRILKGQMNGKLGPETPLAMDQFPYVALSKTYNVDRQVPDSAGTATAYLCGVKGNYRTIGVSAAARYNQCKTTRGNEVTSVMNRAKKAGKSVGVVTTTRVQHASPAGAYAHTVNRNWYSDADLPADAQMNGCQDIAAQLVNNMDIDVILGGGRKYMFPVGTPDPEYPDDASVNGVRKRKQNLVQAWQAKHQGAQYVWNRTALLQAADDSSVTHLMGLFEPADMKYNVQQDHTKDPTLQEMTEVALRVVSRNPRGFYLFVEGGRIDHGHHDDKAYMALTEAGMFDNAIAKANELTSELDTLILVTADHSHVFSFGGYTLRGTSIFGLAPSKALDSKSYTSILYGNGPGYALGGGSRPDVNDSTSEDPSYQQQAAVPQASETHGGEDVAVFARGPQAHLVHGVEEETFVAHIMAFAGCVEPYTDCNLPAPTTATSIPD | – | retained | 4.5-5.0 | 4.4 | 31 ± 12 | loses nearly all of its activity | 100 | no notable difference | 32 ± 9 | 55 ± 10 | approximately 45% | 30 | 70
